The test system of data set [1] is T1, amidated 16'mer peptide RKKFGESEKTKTKEFL
T1 sequence: RKKFGESEKTKTKEFL

Data set [2] concerns peptides centered around the phosphorylation site of eEF-2.

We go through one substance from US20020142429.

On to “recombinant eEF-2 kinase (as used in the peptide phosphorylation assay)”, for which, in data set [1], the phosphoacceptor activity result is “amidation of the peptide further stabilizes the α-helical structure, resulting in stronger phosphoacceptor activity”. Besides, in data set [2], the phosphorylation assays entry is on record as “This strategy did not yield a peptide that was functional in phosphorylation assays (data not shown)”.
